Assays:
[1] = Systemic histopathological and toxicological effects of WT1 protein immunization in mice; format: in vivo, mouse
Excerpt: (§1) The purpose of this example is to analyze the immunogenicity and potential systemic histopathological and toxicological effects of WT1 protein immunization in a multiple dose titration in mice.
(§2) The experimental design for immunization of mice with WT1 protein is outlined in Table 51.
Special emphasis was put on evaluation of potential hematopoietic toxicity. The myeloid/erythroid ratio in sternum and femur marrow was normal.

WT1 = test: Immunogenicity of WT1 protein immunization with MPL-SE, multiple dose titration in mice (Table 51); format: in vivo, mouse; settings: MPL-SE adjuvant; doses 25 μg, 100 μg to 1000μg WT1 protein; female C57/B6 mice
Excerpt: as §1, §2

[2] = even on an outpatient basis; cited from earlier work
[3] = mice immunized with WT1 protein

Row | Substance | histological evidence for toxicity in tissues ([1]; adrenal gland, brain, colon, heart, kidney, liver, lung, marrow, spleen and other listed tissues) | blood cell counts and blood chemistry (BUN, creatinine, bilirubin, albumin, globulin) [1, 3] | myeloid/erythroid ratio in sternum and femur marrow [1, 3] | systemic histopathological or toxicological effects of immunization ([1]; mice, multiple dose titration) | WT1-specific antibody response (WT1) | cellular T-cell responses (WT1) | dose known to be safe for human use [2] [μg/m^2]
1 | WT1 protein: WT1 protein used for vaccination of mice with MPL-SE as adjuvant | No histological evidence for toxicity | within the normal range | normal | No systemic histopathological or toxicological effects | elicited a strong WT1-specific antibody response | cellular T-cell responses | 
2 | monophosphoryl lipid A [MPL] |  |  |  |  |  |  | 100

From patent US20030082194A1, “Compositions and methods for diagnosis and therapy of malignant mesothelioma” (priority 2000, published 2003)
